{"source": "the Human Domainome abundance scans (Beltran et al. 2025)", "parents": {"B1": {"name": "WW domain-binding protein 4, residues 8 to 43; numbered along this chain, O75554 (parent)", "chain": "QPKKFCDYCKCWIADNRPSVEFHERGKNHKENVAKR"}}, "note": "± gives the uncertainty stated by the source.", "data": [{"variants_of": "B1", "assay": "abundance fitness (aPCA) (normalised: wild type 0, dead -1); higher = more abundant; growth selection in yeast, the domain comes from the species named", "settings": "Homo sapiens", "values": [{"variant": "QPKKFCDYCKCWIADNRPSVLFHERGKNHKENVAKR", "abundance fitness": "-0.19 ± 0.069"}, {"variant": "QPKKFCDYCKCWIADNRPSVRFHERGKNHKENVAKR", "abundance fitness": "-0.05 ± 0.059"}, {"variant": "QPKKFCDYCKCWIADNRPSVIFHERGKNHKENVAKR", "abundance fitness": "-0.71 ± 0.36"}, {"variant": "QPKKFCDYCKCWIADNRPSVKFHERGKNHKENVAKR", "abundance fitness": "0.007 ± 0.07"}, {"variant": "QPKKFCDYCKCWIADNRPSVAFHERGKNHKENVAKR", "abundance fitness": "-0.163 ± 0.063"}, {"variant": "QPKKFCDYCKCWIADNRPSVTFHERGKNHKENVAKR", "abundance fitness": "-0.034 ± 0.085"}, {"variant": "QPKKFCDYCKCWIADNRPSVHFHERGKNHKENVAKR", "abundance fitness": "-0.475 ± 0.32"}, {"variant": "QPKKFCDYCKCWIADNRPSVWFHERGKNHKENVAKR", "abundance fitness": "-0.295 ± 0.07"}, {"variant": "QPKKFCDYCKCWIADNRPSVCFHERGKNHKENVAKR", "abundance fitness": "-0.36 ± 0.094"}, {"variant": "QPKKFCDYCKCWIADNRPSVVFHERGKNHKENVAKR", "abundance fitness": "-0.289 ± 0.062"}, {"variant": "QPKKFCDYCKCWIADNRPSVNFHERGKNHKENVAKR", "abundance fitness": "-0.312 ± 0.11"}, {"variant": "QPKKFCDYCKCWIADNRPSVMFHERGKNHKENVAKR", "abundance fitness": "-0.332 ± 0.11"}, {"variant": "QPKKFCDYCKCWIADNRPSVSFHERGKNHKENVAKR", "abundance fitness": "-0.167 ± 0.074"}, {"variant": "QPKKFCDYCKCWIADNRPSVPFHERGKNHKENVAKR", "abundance fitness": "-0.467 ± 0.096"}, {"variant": "QPKKFCDYCKCWIADNRPSVDFHERGKNHKENVAKR", "abundance fitness": "-0.15 ± 0.093"}, {"variant": "QPKKFCDYCKCWIADNRPSVFFHERGKNHKENVAKR", "abundance fitness": "-0.437 ± 0.25"}, {"variant": "QPKKFCDYCKCWIADNRPSVQFHERGKNHKENVAKR", "abundance fitness": "-0.074 ± 0.085"}, {"variant": "QPKKFCDYCKCWIADNRPRVEFHERGKNHKENVAKR", "abundance fitness": "-0.574 ± 0.063"}, {"variant": "QPKKFCDYCKCWIADNRPFVEFHERGKNHKENVAKR", "abundance fitness": "-0.797 ± 0.27"}, {"variant": "QPKKFCDYCKCWIADNRPKVEFHERGKNHKENVAKR", "abundance fitness": "-0.379 ± 0.097"}, {"variant": "QPKKFCDYCKCWIADNRPQVEFHERGKNHKENVAKR", "abundance fitness": "-0.218 ± 0.094"}, {"variant": "QPKKFCDYCKCWIADNRPTVEFHERGKNHKENVAKR", "abundance fitness": "-0.079 ± 0.078"}, {"variant": "QPKKFCDYCKCWIADNRPNVEFHERGKNHKENVAKR", "abundance fitness": "-0.204 ± 0.11"}, {"variant": "QPKKFCDYCKCWIADNRPVVEFHERGKNHKENVAKR", "abundance fitness": "-0.451 ± 0.071"}, {"variant": "QPKKFCDYCKCWIADNRPHVEFHERGKNHKENVAKR", "abundance fitness": "-0.269 ± 0.29"}, {"variant": "QPKKFCDYCKCWIADNRPEVEFHERGKNHKENVAKR", "abundance fitness": "-0.245 ± 0.074"}, {"variant": "QPKKFCDYCKCWIADNRPDVEFHERGKNHKENVAKR", "abundance fitness": "-0.13 ± 0.082"}, {"variant": "QPKKFCDYCKCWIADNRPLVEFHERGKNHKENVAKR", "abundance fitness": "-0.467 ± 0.062"}, {"variant": "QPKKFCDYCKCWIADNRPWVEFHERGKNHKENVAKR", "abundance fitness": "-0.672 ± 0.089"}, {"variant": "QPKKFCDYCKCWIADNRPCVEFHERGKNHKENVAKR", "abundance fitness": "-0.516 ± 0.12"}, {"variant": "QPKKFCDYCKCWIADNRPAVEFHERGKNHKENVAKR", "abundance fitness": "-0.058 ± 0.065"}, {"variant": "QPKKFCDYCKCWIADNRPGVEFHERGKNHKENVAKR", "abundance fitness": "-0.3 ± 0.065"}, {"variant": "QPKKFCDYCKCWIADNRPMVEFHERGKNHKENVAKR", "abundance fitness": "-0.07 ± 0.1"}, {"variant": "QPKKFCDYCKCWIADNRPSIEFHERGKNHKENVAKR", "abundance fitness": "-0.275 ± 0.2"}, {"variant": "QPKKFCDYCKCWIADNRPSREFHERGKNHKENVAKR", "abundance fitness": "-0.226 ± 0.068"}, {"variant": "QPKKFCDYCKCWIADNRPSLEFHERGKNHKENVAKR", "abundance fitness": "-0.314 ± 0.069"}, {"variant": "QPKKFCDYCKCWIADNRPSCEFHERGKNHKENVAKR", "abundance fitness": "-0.574 ± 0.12"}, {"variant": "QPKKFCDYCKCWIADNRPSNEFHERGKNHKENVAKR", "abundance fitness": "-0.033 ± 0.17"}, {"variant": "QPKKFCDYCKCWIADNRPSYEFHERGKNHKENVAKR", "abundance fitness": "-0.63 ± 0.14"}, {"variant": "QPKKFCDYCKCWIADNRPSAEFHERGKNHKENVAKR", "abundance fitness": "0.05 ± 0.069"}, {"variant": "QPKKFCDYCKCWIADNRPSEEFHERGKNHKENVAKR", "abundance fitness": "-0.127 ± 0.065"}, {"variant": "QPKKFCDYCKCWIADNRPSWEFHERGKNHKENVAKR", "abundance fitness": "-0.189 ± 0.077"}, {"variant": "QPKKFCDYCKCWIADNRPSPEFHERGKNHKENVAKR", "abundance fitness": "-0.512 ± 0.083"}, {"variant": "QPKKFCDYCKCWIADNRPSQEFHERGKNHKENVAKR", "abundance fitness": "-0.254 ± 0.084"}, {"variant": "QPKKFCDYCKCWIADNRPSHEFHERGKNHKENVAKR", "abundance fitness": "-0.031 ± 0.15"}, {"variant": "QPKKFCDYCKCWIADNRPSGEFHERGKNHKENVAKR", "abundance fitness": "-0.272 ± 0.067"}, {"variant": "QPKKFCDYCKCWIADNRPSSEFHERGKNHKENVAKR", "abundance fitness": "-0.336 ± 0.081"}, {"variant": "QPKKFCDYCKCWIADNRPSTEFHERGKNHKENVAKR", "abundance fitness": "-0.183 ± 0.12"}, {"variant": "QPKKFCDYCKCWIADNRPSFEFHERGKNHKENVAKR", "abundance fitness": "-0.442 ± 0.22"}, {"variant": "QPKKFCDYCKCWIADNRPSDEFHERGKNHKENVAKR", "abundance fitness": "-0.591 ± 0.17"}, {"variant": "QPKKFCDYCKCWIADNRPSMEFHERGKNHKENVAKR", "abundance fitness": "-0.015 ± 0.4"}, {"variant": "QPKKFCDYCKCWIADNRPSVECHERGKNHKENVAKR", "abundance fitness": "0.089 ± 0.1"}, {"variant": "QPKKFCDYCKCWIADNRPSVEDHERGKNHKENVAKR", "abundance fitness": "0.132 ± 0.17"}, {"variant": "QPKKFCDYCKCWIADNRPSVESHERGKNHKENVAKR", "abundance fitness": "-0.01 ± 0.075"}, {"variant": "QPKKFCDYCKCWIADNRPSVEIHERGKNHKENVAKR", "abundance fitness": "-0.33 ± 0.14"}, {"variant": "QPKKFCDYCKCWIADNRPSVEQHERGKNHKENVAKR", "abundance fitness": "0.238 ± 0.081"}, {"variant": "QPKKFCDYCKCWIADNRPSVEMHERGKNHKENVAKR", "abundance fitness": "0.235 ± 0.089"}, {"variant": "QPKKFCDYCKCWIADNRPSVERHERGKNHKENVAKR", "abundance fitness": "-0.075 ± 0.064"}, {"variant": "QPKKFCDYCKCWIADNRPSVETHERGKNHKENVAKR", "abundance fitness": "0.163 ± 0.074"}, {"variant": "QPKKFCDYCKCWIADNRPSVENHERGKNHKENVAKR", "abundance fitness": "-0.035 ± 0.17"}, {"variant": "QPKKFCDYCKCWIADNRPSVEKHERGKNHKENVAKR", "abundance fitness": "-0.129 ± 0.12"}, {"variant": "QPKKFCDYCKCWIADNRPSVEEHERGKNHKENVAKR", "abundance fitness": "0.07 ± 0.085"}, {"variant": "QPKKFCDYCKCWIADNRPSVEAHERGKNHKENVAKR", "abundance fitness": "0.09 ± 0.08"}, {"variant": "QPKKFCDYCKCWIADNRPSVELHERGKNHKENVAKR", "abundance fitness": "0.051 ± 0.073"}, {"variant": "QPKKFCDYCKCWIADNRPSVEGHERGKNHKENVAKR", "abundance fitness": "0.111 ± 0.059"}, {"variant": "QPKKFCDYCKCWIADNRPSVEPHERGKNHKENVAKR", "abundance fitness": "-0.061 ± 0.1"}, {"variant": "QPKKFCDYCKCWIADNRWSVEFHERGKNHKENVAKR", "abundance fitness": "-0.522 ± 0.092"}, {"variant": "QPKKFCDYCKCWIADNRYSVEFHERGKNHKENVAKR", "abundance fitness": "-0.194 ± 0.096"}, {"variant": "QPKKFCDYCKCWIADNRVSVEFHERGKNHKENVAKR", "abundance fitness": "-0.198 ± 0.069"}]}]}
